Measurements as given in patent publication US20090042782A1, “Diagnostic and therapeutic strategies for conditions associated with the FLJ13639 gene” (priority 2005, published 2009).

B1: P1-TAT: recombinant FLJ13639/P1 protein in frame with HIV TAT protein transduction domain and 6×Histidine tag; amino acid sequence SEQ ID NO:5 (protein)
chain: MRGSHHHHHHGMASMTGGQQMGRDLYDDDDKDRWGSKLGYGRKKRRQRRRGGSTMSGYPYDVPDYAGSMAGTGLESLYRSVVWFAKGLREYTKSGYESACKDFVPHDLEVQIPGRVFLVTGGNSGIGKATALEIAKRGGTVHLVCRDQAPAEDARGEIIRESGNQNIFLHIVDLSDPKQIWKFVENFKQEHKLHVLINNAGCMVNKRELTEDGLEKNFAANTLGVYILTTGLIPVLEKEHDPRVITVSSGGMLVQKLNTNDLQSERTPFDGTMVYAQNKRQQVVLTERWAQGHPAIHFSSMHPGWADTPGVRQAMPGFHARFGDRLRSEAQGADTMLWLALSSAAAAQPSGRFFQDRKPVSTHLPLATASSSPAEEEKLIEILEQLAQTFK

Legend:
Type in all cases: cell-based
[1] = tested on: HL60 cells; experiment: JC-1 mitochondrial membrane potential staining, fluorescence microscopy
Source text: FIG. 14A is a graphical representation of green/red fluorescence intensity ratio data measured for treatment of HL60/VDR cells (a vinctrisin resistant cell line) as indicated for the x-axis. * indicates statistical significance.
Disruption of the mitochondrial membrane potential (Δψm) is an early event associated with apoptosis and may be one of several factors responsible for cytochrome c release (17, 18). Using JC-1 mitochondrial potential sensor (Molecular Probes, Inc) staining and fluorescence microscopy, we analyzed the Δψm in VCR (vincristin) treated HL60 cells. In healthy cells, the dye accumulates and aggregates in mitochondria, where it fluoresces bright red. In apoptotic cells, however, it cannot enter mitochondria if the Δψm is altered and fluoresces bright green as a cytoplasmic monomer. Therefore, mitochondria depolarization is indicated by a decrease of the red/green fluorescence intensity ratio.

[2] = tested on: HL60/VCR (Vincristin resistant) cells; experiment: MTT viability assay; details: 48 h
Protocol: Viability assays by conventional MTT assay protocol (Promega) were performed at 48 h after the beginning of the experiment.

[3] = tested on: H520 cells; experiment: Wound healing assay, lung cancer cells; details: treated vs not treated, 5 days
Protocol: FIG. 12A is a photographic representation of a wound healing assay performed on lung cancer cell lines. The H520 cells were treated (or not treated) with the FLJP1-TAT and motility of cells was monitored through a light microscope to analyze closing of the created gap.
(§1) This was performed by growing the cells to confluence and forming a “wound” by scoring the culture with a pipette tip. The cells were then treated with P1-TAT and assessed for their ability to close the gap between the two artificially created cell populations.

[4] = tested on: MCF7; experiment: Wound healing assay, breast cancer cells; details: treated vs not treated
Protocol: FIG. 12B is a wound healing assay as depicted in FIG. 12A performed on breast cancer cells.
as §1

[5] = tested on: UoCB1 cells; experiment: Matrigel invasion assay; details: 20 μg of P1-TAT for 48 h, treatment versus no treatment
Source text: To perform the Matrigel invasion assay, cells were deposited on top of a matrigel well and chemoattractant (fetal bovine serum) solutions were positioned below the matrigel matrix. Only cells with an invasive potential will “travel” toward the chemoattractant solutions through the matrigel.

[6] = tested on: CD24 protein expression; experiment: CD24 protein expression by immunofluorescence; details: OM9;22 ALL cell line, 48 hours of treatment
Source text: (§2) The same results were obtained using the OVCAR3 ovarian cancer cell line (not shown).

[7] = tested on: HeLa cells; experiment: Lactic acid production in culture medium; details: treated for 3 days vs not treated
Protocol: Mitochondria are well known for their essential role in cell respiration and apoptosis. Cancer cells are known to have altered mitochondrial respiration, where pyruvate is catabolized in the lactic acid fermentation pathway instead of being used in the Krebbs cycle in the mitochondria, which produces energy far more efficiently. […] Culture medium was tested for lactic acid levels.

[8] = tested on: CD24 expression; experiment: CD24 expression by RT-PCR in leukemia cell lines incubated with P1-TAT
Protocol: Reverse transcription was done in 20 μl containing a minimum of 1.25 μg of total RNA, 1 μl of 10 mM of deoxynucleotide triphosphate (NEB, Ipswitch, Mass.), 1 μl of 0.5 μg/μl oligo (dT) 18 (IDT, Coralville, Iowa), 1 μl of 40 U/μl ribonuclease inhibitor (Fermentas, Hanover, Md.), 2 μl of 10×reaction buffer (NEB), and 0.25 μl of 200 U/μl MMLV reverse transcriptase (NEB). After incubation with 1 μl of 5U μl RNase H (NEB) for 20 minutes, multiplex PCR reaction was carried out, allowing for simultaneous detection of CD24 and FLJ13639 expression levels. The primers are: CD 24 (resulting in an amplification product of 300 pb) forward: 5′[…]3′ (SEQ ID NO:12), reverse: 5′[…]3′ (SEQ ID NO:13). The primers for FLJ13639 P1 (resulting in an amplification product of 233 pb) are the same as those described in Example 1. The reactions were of an initial denaturation at 95° C. for 10 minutes, followed by 35 cycles: denaturation, 50 seconds at 95° C., annealing 50 seconds at 54° C. and extension 60 seconds at 75° C. Actin amplification was performed as an internal control, according to the following protocol: 15 seconds at 95° C., 30 seconds at 60° C. and 60 seconds at 75° C.
After 48 hours of incubation, cells were harvested, RNA was extracted and cDNA was used for CD24 expression assessment by RT-PCR.
as §2

Row | Molecule | green/red fluorescence ratio ([1]; 0.1 ug of VCR alone) | green/red fluorescence ratio ([1]; 1 ug of VCR alone, p<0.01) | cytotoxicity at 1 µM ([2]; HL60/VCR, Vincristin 1 μM, read-out: reduction of cell viability) [%] | effect on cell viability ([2]; Vincristin 0.1 μM) | motility / closing of the gap [3] | motility / closing of the gap ([3]; listed as FLJ13639P1-TAT) | motility / closing of the gap [4] | decrease of invasion potential [5] [fold] | CD24 protein expression [6] | level of lactic acid in culture medium [7] | CD24 expression ([8]; OM9:22, ALL-1, K562, 207 cell lines, 20 μg of P1-TAT (data not shown)) | CD24 expression levels ([8]; UoCB1 cell line, increasing amount of P1-TAT, 48 hours, RT-PCR) | CD24 levels, time-course ([8]; UoCB1 cells, 20 μg of P1-TAT, six hours after incubation)
1 | CC[C@]1(O)C[C@H]2CN(CCc3c([nH]c4ccccc34)[C@@](C(=O)OC)(c3cc4c(cc3OC)N(C=O)[C@H]3[C@@](O)(C(=O)OC)[C@H](OC(C)=O)[C@]5(CC)C=CCN6CC[C@]43[C@@H]65)C2)C1 [Vincristin, vincristin] | low green/red fluorescence ratio | significant increase | 90 | almost no effect |  |  |  |  |  |  |  |  | 
2 | B1 |  |  |  |  | significantly reduced the motility | inhibited filling of the gap | significantly reduced the motility | 2.4 | down-regulated | significantly lower level | marked CD24 down-regulation | inversely proportional | significantly downregulated
